Source: article PMC10367348 (Journal of Biomedical Science, 2023)
Ends that are not written are not given here.

T1: biotinylated BSA conjugated peptide (influenza A virus, also: biotinylated, BSA conjugated)
T1 peptide: KSLLTEVETPI

B1: scFv JU1 (scFv, V domains shown)
VH: EVQLLESGGGLVQPGGSLRLSCAASGFTFSSYAMSWVRQAPGKGLEWVSRISAQGNQTRYSDSVKGRFTISRDNSKNTLYLQMNSLRAEDTAVYYCAKKSSYFDYWGQGTLVTVSS
VL: DIQMTQSPSSLSASVGDRVTITCRASQSISSYLNWYQQKPGKAPKLLIYKASTLQSGVPSRFSGSGSGTDFTLTISSLQPEDFATYYCQQWRTRPLTFGQGTKVEIK
B2: scFv GU1 (scFv, V domains shown)
VH: EVQLLESGGGLVQPGGSLRLSCAASGFTFSSYAMSWVRQAPGKGLEWVSGISQLGGYTGYAGSVKGRFTISRDNSKNTLYLQMNSLRAEDTAVYYCAKNRATFDYWGQGTLVTVSS
VL: DIQMTQSPSSLSASVGDRVTITCRASQSISSYLNWYQQKPGKAPKLLIYAASHLQSGVPSRFSGSGSGTDFTLTISSLQPEDFATYYCQQSQHKPLTFGQGTKVEIK
B3: scFv UU1 (scFv, V domains shown)
VH: EVQLLESGGGLVQPGGSLRLSCAASGFTFSSYAMSWVRQAPGKGLEWVSTISMSGKRTQYADSVKGRFTISRDNSKNTLYLQMNSLRAEDTAVYYCAKRHRYFDYWGQGTLVTVSS
VL: DIQMTQSPSSLSASVGDRVTITCRASQSISSYLNWYQQKPGKAPKLLIYRASKLQSGVPSRFSGSGSGTDFTLTISSLQPEDFATYYCQQPGWRPKTFGQGTKVEIK
B4: scFv AU1 (scFv, V domains shown)
VH: EVQLLESGGGLVQPGGSLRLSCAASGFTFSSYAMSWVRQAPGKGLEWVSTILQHGQRTLYADSVKGRFTISRDNSKNTLYLQMNSLRAEDTAVYYCAKNRAVFDYWGQGTLVTVSS
VL: DIQMTQSPSSLSASVGDRVTITCRASQSISSYLNWYQQKPGKAPKLLIYTASTLQSGVPSRFSGSGSGTDFTLTISSLQPEDFATYYCQQYRQRPPTFGQGTKVEIK
notes: also called AU1 scFv

Tests used:
[1] = target: T2, matrix protein 2 [Influenza A virus (A/New York/392/2004(H3N2))] (Influenza A virus (A/New …, UniProt P0DOF5, strain)); assay: flow cytometry on cells; conditions: one partner purified
T2 construct: also called M2; M2 protein

[2] = target: T1, biotinylated BSA conjugated peptide; assay: BLI

| Binder | binding result [1] | Kd [2] [nM] |
| --- | --- | --- |
| B1 | binds | 3610 |
| B2 | binds | 350 |
| B3 | binds | 8600 |
| B4 | binds | 940 |
